These results are taken from article PMC9089796, “Oxidative stress promotes fibrosis in systemic sclerosis through stabilization of a kinase-phosphatase complex” (JCI Insight, 2022).

This experiment concerns the target T1, full-length human SRC, purified (human, UniProt P12931 1-536).
T1 construct: also called full-length SRC; not shown: GST, N-terminal, cleaved
Description: pull-down; His6-tagged PTP4A1 on Ni-NTA agarose beads (untreated, or treated with 0.5 mM H2O2 or 20 mM DTT for 1 hour); 0.5 μg SRC or 17.2 nmol GST-tagged SH3SH2 in 1 mL 60 mM HEPES pH 7.4, 5 mM MgCl2, 5 mM MnCl2, 1% BSA; 4°C, 2 hours; Western blotting. The following applies: both partners purified. In general terms: Immunoblotting shows a protein as a band on a membrane.

B1: His6-tagged oxidized PTP4A1 (residues 1-160), bound to Ni-NTA agarose (domain or fragment, human, UniProt Q93096 1-160, looked up)
chain: MARMNRPAPVEVTYKNMRFLITHNPTNATLNKFIEELKKYGVTTIVRVCEATYDTTLVEKEGIHVLDWPFDDGAPPSNQIVDDWLSLVKIKFREEPGCCIAVHCVAGLGRAPVLVALALIEGGMKYEDAVQFIRQKRRGAFNSKQLLYLEKYRPKMRLRF
modifications: oxidized: disulfide bond between Cys104 and Cys49
notes: also called oxo-PTP4A1; source: E. coli BL21 (DE3), purified (Ni-NTA, cation exchange); beads incubated with 0.5 mM H2O2 for 1 hour; not shown: His6, N-terminal, kept
As to B1, the binding result was “binds”.

B2: His6-tagged PTP4A1 (residues 1-160), untreated, bound to Ni-NTA agarose (domain or fragment, human, UniProt Q93096 1-160, looked up)
chain: MARMNRPAPVEVTYKNMRFLITHNPTNATLNKFIEELKKYGVTTIVRVCEATYDTTLVEKEGIHVLDWPFDDGAPPSNQIVDDWLSLVKIKFREEPGCCIAVHCVAGLGRAPVLVALALIEGGMKYEDAVQFIRQKRRGAFNSKQLLYLEKYRPKMRLRF
notes: Not treated with H2O2 or DTT; also called protein tyrosine phosphatase 4A type 1; untreated beads containing both oxidized and reduced PTP4A1; source: E. coli BL21 (DE3), purified (Ni-NTA, cation exchange); not shown: His6, N-terminal, kept
B2: the binding result is “binds”.
